The labels stand for the following.
B1: DNA repair protein rad60 (Schizosaccharomyces pombe (strain ATCC 38366 / 972)), Q9USX3 (parent)
chain: MDNLDEDDLAFFSKPIKKPPLNYAKQLIASSSDSEEESELDTNKQALEHINAQKNITHNENKSAEPLSRQSTILDADEGNQDVSDTTPNACLNEGRHSPKSAISCVTQPVSPVYNTRAAANLRNNSINSEAALSTTSSLLDDDFARRLEEIDRQVQEFEKSSSDMDVQIHTHKREIEEDDDNTSADVPLLKHSKSDHSTLYHSKSEFSTNEPVISVVLQLAVIGQRIPNSNISLPRDWEAPLFFKVKSNQQFRRVRIAYSERKKVDNVVLVFQNQRLWDYGTPKGAGMLKVDTRLVVHAYCHSDFISLKRIKELEVEKLSSVTEDSTAQTCKLITLLLRSSKSEDLRLSIPVDFTVKDLIKRYCTEVKISFHERIRLEFEGEWLDPNDQVQSTELEDEDQVSVVLD
partner: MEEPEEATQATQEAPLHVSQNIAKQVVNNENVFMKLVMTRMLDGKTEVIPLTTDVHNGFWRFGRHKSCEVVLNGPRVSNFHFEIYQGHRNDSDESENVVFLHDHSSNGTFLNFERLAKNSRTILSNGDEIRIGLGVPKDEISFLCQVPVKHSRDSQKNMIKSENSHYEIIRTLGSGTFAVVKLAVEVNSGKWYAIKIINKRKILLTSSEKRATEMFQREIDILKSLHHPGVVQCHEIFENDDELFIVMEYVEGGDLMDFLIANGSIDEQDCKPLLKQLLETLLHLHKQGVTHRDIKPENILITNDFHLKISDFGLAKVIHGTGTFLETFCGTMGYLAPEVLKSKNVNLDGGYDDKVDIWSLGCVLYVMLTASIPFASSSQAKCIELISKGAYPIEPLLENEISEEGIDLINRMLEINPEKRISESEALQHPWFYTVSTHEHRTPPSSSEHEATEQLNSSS
B2: Serine/threonine-protein kinase cds1 (Schizosaccharomyces pombe (strain ATCC 38366 / 972)), Q09170 (parent)
chain: B1 partner
partner: B1 chain

In one experiment the parent is B1. The conditions noted are these: with rad53_schpo cds1, Q09170.
With T72A;I232S;Q250R;K312N, the “effect of a mutation on the interaction” value is reported as “disrupting interaction”.

In another experiment the parent is B2. The conditions noted are these: with rad60_schpo rad60, Q9USX3.
On to S78A;H81A, for which the “effect of a mutation on the interaction” value is recorded as “disrupting interaction”.

The values above are taken from IntAct's records for PubMed 12897162.
